From US20260185070A1, “CRISPR-Cas Effector Polypeptides, Lipid Nanoparticles, and Methods of Use Thereof” (The Regents of the University of California, priority 2022, published 2026)

Tests used:
NPCs = assay: NPC viability with LNPs containing different pegylated lipids; assay type: cell-based, mouse
From the text: Several pegylated lipids, commercial and synthetic, were examiner for their ability to encapsulate and deliver iGeoCas9 RNPs in LNPs (FIG. 48c). […] The reduced toxicity and enhanced delivery efficiency of these 3 PEGylated lipids stems from the pH-sensitive, acid-degradable acetal linker used in their synthesis (FIG. 49): the labile acetal linker could be cleaved in the late endosome stage of LNP delivery with a pH of 5-6, which frees the PEG moiety from the lipid molecules to reduce cytotoxicity and meanwhile destabilizes the endosome to promote the release of RNP into the cytosol. Further optimization of other parameters (e.g., mole and volume ratios of lipids to RNP, and salt concentration in the buffer, FIG. 50b) in LNP assembly established two sets of lipid formulations, i.e., standard formula (with DOTAP as the cationic lipid) and cationic formula (with ADC as the cationic lipid), which encapsulate GeoCas9 RNPs with good particle uniformity (diameter: 170-180 nm, PDI: 0.13-0.17) (FIG. 41b).

[1] = test system: EGFP transgene in a model HEK293T cell line; assay: EGFP-to-BFP HDR by LNP co-delivery of RNP and ssDNA template in HEK293T cells; assay type: cell-based, human; conditions: additive in RNP LNPs; in words
From the text: It was investigated if the co-delivery of iGeoCas9 RNPs and ssDNA templates in LNPs could switch EGFP to the blue fluorescent protein (BFP) in a model HEK293T cell line (FIG. 43b). In this cell assay, editing of the chromophore Thr-Tyr-Gly in the EGFP transgene followed by HDR to install a Ser/Thr-His-Gly chromophore turns EGFP into BFP. Four sgRNAs, rEGFP-R1 to R4, were designed to target the coding and non-coding strands in the chromophore region for editing. To avoid possible recutting events after the incorporation of the desired edits, four ssDNA HDR templates were designed to introduce GFP-to-BFP edits together with additional silent mutations in the DNA sequence. […] The HDR level was quantified to be between 20-40% by flow cytometry with 50-75% of non-homologous end-joining (NHEJ) indicated as EGFP knockdown (FIGS. 4b and 51).
LNP delivery: 4-6.5k cells/well were seeded in 96-well plates 48 hours prior to LNP treatment (HEK293 cells: 4-5k. NPCs: 5-6k, and 16HBEge cells: 6-6.5k). The culture media was refreshed 24 hours after LNP treatment. HEK293T cells were split after 2 additional days with a ratio of […] based on cell confluency. […]
Cell fluorescence was assayed on an Attune NxT acoustic focusing cytometer (Thermo Fisher Scientific) equipped with 554 nm excitation laser and 585/16 emission filter (tdTomato). […] Data were analyzed using Attune Cytometric Software v5.1.1.

ccdB toxin gene = assay: bacterial dual-plasmid selection assay (Cas9 cleavage of ccdB plasmid, survival rate); assay type: cell-based, E. coli; conditions: for survival rate: sgRNA target sequence #6, PAM ggatGAAA
Description: A bacterial dual-plasmid selection system was employed for the directed evolution of GeoCas9, which has been successfully employed for engineering other CRISPR Cas effectors. […] To search for a reliable evolution starting point with minimal activity in the E. coli assay, 20 different sgRNAs that target the ccdB gene at the protospacers associated with different PAM sequences were screened (FIG. 46d) and selection under two sets of conditions was performed (37 C or 30 C for 1.5 hours). […] Libraries of GeoCas9 mutants were generated by targeting different domains of the protein for random mutagenesis (FIG. 46a) and then subjected to the selection system under the conditions at 30° C.
A chloramphenicol-resistant (CAM+) bacterial expression plasmid was built to have the insert gene of GeoCas9 together with its corresponding sgRNA that targets the ccdB gene in the selection plasmid with a PAM of GAAA (g6). Libraries of GeoCas9 mutants were generated by error-prone PCR to introduce random mutagenesis in three different regions (BH-Rec, RuvC-HNH-WED, and WED-PI). The error-prone PCR (with an error rate of 3- to 5-nucleotide mutations per kilobase) was carried out with the Taq DNA polymerase (New England BioLabs) in a reaction containing 2 μl of 10 mM primers, 1.5 μl of 10 mM MnCl2, 2 ng of template plasmid. The plasmid libraries were generated by ligating the mutated fragments with the remaining part of the plasmid through Gibson assembly. The plasmid libraries (-100 ng DNA after clean-up) were electroporated into 50 μl of electronically competent cells made from E. coli strain BW25141(DE3) that contains the selection plasmid encoding the arabinose-inducible ccdB toxin gene. After recovery of the electroporated bacteria in 750 μl of SOB for 1.5 hours at 30° C., the bacteria culture was concentrated; 1% of the total culture was plated onto a Petri agar dish containing only CAM (as control), and the remainder culture was plated on another Petri agar-dish containing both arabinose and CAM. […]

[2] = protein melting temperature, thermal shift assay; assay type: physicochemical
Description: Protein melting temperatures were measured using the thermal shift assay (GloMelt™, CAT #33021). The assay was performed on a quantitative PCR system with a temperature increase rate of 2° C./min. The protein melting temperatures were determined as the peak values in the derivative curves of the melting curves.

Molecule: DMG-PEG
- toxicity / biocompatibility with NPCs (NPCs): detrimental to NPC viability

Molecule: heparin
- effect of anionic polymer additive on editing levels [1]: reduced editing

B1: GeoCas9: Geobacillus stearothermophilus CRISPR-Cas effector polypeptide, SEQ ID NO: 1; thermostable type II-C Cas9 (protein, listed as Geobacillus stearothermophilus)
chain: MRYKIGLDIGITSVGWAVMNLDIPRIEDLGVRIFDRAENPQTGESLALPRRLARSARRRLRRRKHRLERIRRLVIREGILTKEELDKLFEEKHEIDVWQLRVEALDRKLNNDELARVLLHLAKRRGFKSNRKSERSNKENSTMLKHIEENRAILSSYRTVGEMIVKDPKFALHKRNKGENYTNTIARDDLEREIRLIFSKQREFGNMSCTEEFENEYITIWASQRPVASKDDIEKKVGFCTFEPKEKRAPKATYTFQSFIAWEHINKLRLISPSGARGLTDEERRLLYEQAFQKNKITYHDIRTLLHLPDDTYFKGIVYDRGESRKQNENIRFLELDAYHQIRKAVDKVYGKGKSSSFLPIDFDTFGYALTLFKDDADIHSYLRNEYEQNGKRMPNLANKVYDNELIEELLNLSFTKFGHLSLKALRSILPYMEQGEVYSSACERAGYTFTGPKKKQKTMLLPNIPPIANPVVMRALTQARKVVNAIIKKYGSPVSIHIELARDLSQTFDERRKTKKEQDENRKKNETAIRQLMEYGLTLNPTGHDIVKFKLWSEQNGRCAYSLQPIEIERLLEPGYVEVDHVIPYSRSLDDSYTNKVLVLTRENREKGNRIPAEYLGVGTERWQQFETFVLTNKQFSKKKRDRLLRLHYDENEETEFKNRNLNDTRYISRFFANFIREHLKFAESDDKQKVYTVNGRVTAHLRSRWEFNKNREESDLHHAVDAVIVACTTPSDIAKVTAFYQRREQNKELAKKTEPHFPQPWPHFADELRARLSKHPKESIKALNLGNYDDQKLESLQPVFVSRMPKRSVTGAAHQETLRRYVGIDERSGKIQTVVKTKLSEIKLDASGHFPMYGKESDPRTYEAIRQRLLEHNNDPKKAFQEPLYKPKKNGEPGPVIRTVKIIDTKNQVIPLNDGKTVAYNSNIVRVDVFEKDGKYYCVPVYTMDIMKGILPNKAIEPNKPYSEWKEMTEDYTFRFSLYPNDLIRIELPREKTVKTAAGEEINVKDVFVYYKTIDSANGGLELISHDHRFSLRGVGSRTLKRFEKYQVDVLGNIYKVRGEKRVGLASSAHSKPGKTIRPLQSTRD
- survival rate (ccdB toxin gene; selection 30° C. for 1.5 hours): < 0.1%
- survival rate (ccdB toxin gene; selection 37 C for 1.5 hours): 2-5%
- survival in the bacterial assay (ccdB toxin gene; validation of selected mutant vs wild-type, temperature not stated): < 5%
- Tm (thermostability) [2]: 60 °C
